Values quoted from earlier work as cited in patent US20080095848A1, “Pharmaceutical Composition For Topical Use In Form Of Xerogels Or Films And Methods For Production” (Ludwig-maximilian-University, priority 2004, published 2008).

Settings: aqueous formulation, within two weeks

B1: EGF: growth factor; wound healing factor, protein unstable in aqueous formulation (protein, UniProt P01133 23-1207, looked up)
Pro-epidermal growth factor: PQHWSCPEGTLAGNGNSTCVGPAPFLIFSHGNSIFRIDTEGTNYEQLVVDAGVSVIMDFHYNEKRIYWVDLERQLLQRVFLNGSRQERVCNIEKNVSGMAINWINEEVIWSNQQEGIITVTDMKGNNSHILLSALKYPANVAVDPVERFIFWSSEVAGSLYRADLDGVGVKALLETSEKITAVSLDVLDKRLFWIQYNREGSNSLICSCDYDGGSVHISKHPTQHNLFAMSLFGDRIFYSTWKMKTIWIANKHTGKDMVRINLHSSFVPLGELKVVHPLAQPKAEDDTWEPEQKLCKLRKGNCSSTVCGQDLQSHLCMCAEGYALSRDRKYCEDVNECAFWNHGCTLGCKNTPGSYYCTCPVGFVLLPDGKRCHQLVSCPRNVSECSHDCVLTSEGPLCFCPEGSVLERDGKTCSGCSSPDNGGCSQLCVPLSPVSWECDCFPGYDLQLDEKSCAASGPQPFLLFANSQDIRHMHFDGTDYGTLLSQQMGMVYALDHDPVENKIYFAHTALKWIERANMDGSQRERLIEEGVDVPEGLAVDWIGRRFYWTDRGKSLIGRSDLNGKRSKIITKENISQPRGIAVHPMAKRLFWTDTGINPRIESSSLQGLGRLVIASSDLIWPSGITIDFLTDKLYWCDAKQSVIEMANLDGSKRRRLTQNDVGHPFAVAVFEDYVWFSDWAMPSVMRVNKRTGKDRVRLQGSMLKPSSLVVVHPLAKPGADPCLYQNGGCEHICKKRLGTAWCSCREGFMKASDGKTCLALDGHQLLAGGEVDLKNQVTPLDILSKTRVSEDNITESQHMLVAEIMVSDQDDCAPVGCSMYARCISEGEDATCQCLKGFAGDGKLCSDIDECEMGVPVCPPASSKCINTEGGYVCRCSEGYQGDGIHCLDIDECQLGEHSCGENASCTNTEGGYTCMCAGRLSEPGLICPDSTPPPHLREDDHHYSVRNSDSECPLSHDGYCLHDGVCMYIEALDKYACNCVVGYIGERCQYRDLKWWELRHAGHGQQQKVIVVAVCVVVLVMLLLLSLWGAHYYRTQKLLSKNPKNPYEESSRDVRSRRPADTEDGMSSCPQPWFVVIKEHQDLKNGGQPVAGEDGQAADGSMQPTSWRQEPQLCGMGTEQGCWIPVSSDKGSCPQVMERSFHMPSYGTQTLEGGVEKPHSLLSANPLWQQRALDPPHQMELTQ
modifications: Pro-epidermal growth factor
In the case of B1, the loss of activity is given as 40%.
